Data: US11427623

Assays:
[1] = biological target: KLB (beta-klotho) on KLB only expressing cells (UniProt Q86Z14); experiment: cell-based or functional assay
[2] = biological target: KLB/FGFR4 on KLB/FGFR4 expressing cells (UniProt Q86Z14); experiment: cell-based or functional assay
KLB/FGFR4 on KLB/FGFR4 expressing cells, sequence (Q86Z14 whole entry, chain 1 of 2): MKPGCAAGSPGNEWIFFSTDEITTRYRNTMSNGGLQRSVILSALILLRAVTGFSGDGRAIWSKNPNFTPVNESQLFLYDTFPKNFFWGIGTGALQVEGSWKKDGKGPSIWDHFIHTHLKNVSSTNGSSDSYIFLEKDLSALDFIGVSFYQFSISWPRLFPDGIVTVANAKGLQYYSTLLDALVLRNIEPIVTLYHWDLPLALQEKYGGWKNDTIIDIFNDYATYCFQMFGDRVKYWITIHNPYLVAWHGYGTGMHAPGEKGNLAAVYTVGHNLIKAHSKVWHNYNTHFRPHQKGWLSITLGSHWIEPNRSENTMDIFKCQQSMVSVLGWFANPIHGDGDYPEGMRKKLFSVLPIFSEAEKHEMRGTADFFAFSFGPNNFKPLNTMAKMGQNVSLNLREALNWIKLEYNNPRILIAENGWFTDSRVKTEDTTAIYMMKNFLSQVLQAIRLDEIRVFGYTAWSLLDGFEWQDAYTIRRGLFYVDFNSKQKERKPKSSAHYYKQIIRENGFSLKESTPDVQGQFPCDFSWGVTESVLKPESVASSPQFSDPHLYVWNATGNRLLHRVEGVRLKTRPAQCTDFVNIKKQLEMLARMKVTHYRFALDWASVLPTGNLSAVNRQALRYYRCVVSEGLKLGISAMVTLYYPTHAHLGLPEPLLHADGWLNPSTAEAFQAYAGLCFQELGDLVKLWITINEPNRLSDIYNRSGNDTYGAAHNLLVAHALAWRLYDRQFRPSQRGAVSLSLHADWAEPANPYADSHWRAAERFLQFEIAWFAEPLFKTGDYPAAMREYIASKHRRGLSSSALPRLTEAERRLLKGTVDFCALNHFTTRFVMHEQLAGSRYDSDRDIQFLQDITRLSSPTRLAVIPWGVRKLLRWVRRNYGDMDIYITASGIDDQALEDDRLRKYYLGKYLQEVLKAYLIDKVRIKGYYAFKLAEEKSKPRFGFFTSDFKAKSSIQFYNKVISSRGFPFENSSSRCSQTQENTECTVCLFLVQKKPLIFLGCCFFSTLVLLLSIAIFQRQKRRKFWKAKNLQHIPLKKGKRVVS
KLB/FGFR4 on KLB/FGFR4 expressing cells, sequence (P22455 22-802 limits assumed, chain 2 of 2, further chain): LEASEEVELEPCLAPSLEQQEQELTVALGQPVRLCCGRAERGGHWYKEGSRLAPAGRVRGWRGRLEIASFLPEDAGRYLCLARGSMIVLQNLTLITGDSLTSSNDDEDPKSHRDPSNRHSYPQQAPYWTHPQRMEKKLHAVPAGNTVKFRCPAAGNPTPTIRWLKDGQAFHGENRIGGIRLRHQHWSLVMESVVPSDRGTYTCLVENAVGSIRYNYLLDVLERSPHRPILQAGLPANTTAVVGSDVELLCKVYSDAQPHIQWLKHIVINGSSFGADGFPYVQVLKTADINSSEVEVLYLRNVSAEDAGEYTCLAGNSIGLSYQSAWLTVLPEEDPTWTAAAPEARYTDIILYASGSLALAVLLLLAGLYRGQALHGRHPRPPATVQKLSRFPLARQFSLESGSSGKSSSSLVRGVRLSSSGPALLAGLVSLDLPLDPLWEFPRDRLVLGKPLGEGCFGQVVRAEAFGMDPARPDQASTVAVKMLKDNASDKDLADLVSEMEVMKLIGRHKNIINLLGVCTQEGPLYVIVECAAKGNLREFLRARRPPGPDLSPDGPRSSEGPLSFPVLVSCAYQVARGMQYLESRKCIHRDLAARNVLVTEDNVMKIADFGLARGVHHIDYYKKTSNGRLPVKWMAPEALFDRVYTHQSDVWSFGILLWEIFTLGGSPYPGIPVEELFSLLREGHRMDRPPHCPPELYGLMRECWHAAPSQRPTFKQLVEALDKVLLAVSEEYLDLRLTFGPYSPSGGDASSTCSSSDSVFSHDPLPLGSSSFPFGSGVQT

KLB (beta-klotho) on KLB only expressing cells, sequence (Q86Z14 whole entry): as the sequence (Q86Z14 whole entry, chain 1 of 2) above

Row | fold increase of pERK at 3000 nM [1] [fold] | fold increase in pERK at the highest concentration of 3000 nM [2] [fold] | Substance
1 | 2 | – | FGF-19 (from UniProt O95750 25-216) (ligand)
2 | – | < 2 | Mutant FGF21-GalNAc-SA-PEG-20 kDa (BIO89-100) (from UniProt Q9NSA1 29-209) (ligand)
3 | 2 | < 2 | native FGF-21 (from UniProt Q9NSA1 29-209) (ligand)
